Patent US20160185837A1 (Medimmune Limited, priority 2013, published 2016)

Legend:
Type in all cases: cell-based
[1] = biological target: T1, human glucagon receptor (GCGr) (Homo sapiens, UniProt P47871); test: BSA-cAMP assay, cells expressing human glucagon receptor; conditions: Batch 1, read-out: hGCGr cAMP activity EC50
T1 construct: expressed in transfected cells; host or cells: HEK293s or CHO cells
Method: (§1) One basic cAMP assays was performed, differing in the medium used for the assay, the “BSA-cAMP assay”:
(§2) BSA-based assay medium: 0.1% bovine serum albumin (BSA) in
(§3) In certain aspects, the assay can also be carried out in medium supplemented with serum albumin that corresponds to the receptor being tested, e.g., human serum albumin for testing cAMP activity at hGIPr or hGLP-1r, rat serum albumin for testing cAMP activity at rGIPr or rGLP-1r, and so on. […] All sample dilutions were made in duplicate.
(§4) A frozen cryo-vial of cells expressing the receptor of interest was thawed rapidly in a water-bath, transferred to pre-warmed assay media and spun at 240×g for 5 minutes. Cells were re-suspended in assay buffer at an optimized concentration (e.g., hGLP-1r and hGIPr cells at 0.5×10^5 cells/ml).
(§5) To this, 5 μL cell suspension was added and the plates incubated at room temperature for 30 minutes.
(§6) cAMP levels were measured using a commercially available cAMP dynamic 2 HTRF kit (Cisbio, Cat #62AM4PEJ), following the two step protocol as per manufacturer's recommendations. In brief; anti-cAMP cryptate (donor fluorophore) and cAMP-d2 (acceptor fluorophore) were made up separately by diluting each 1/20 in conjugate & lysis buffer provided in the kit. 5 μL anti-cAMP cryptate was added to all wells of the assay plate, and 5 μL cAMP-d2 added to all wells except non-specific binding (NSB) wells, to which conjugate and lysis buffer was added. […] Data was transformed to % Delta F as described in manufacturer's guidelines and then transformed to percent activation of maximal native agonist response and analysed by 4-parameter logistic fit to determine EC50 values.
(§7) We used unconstrained 4 parameter logistic fit of data, curve mid-point to determine EC50. This was tested on two occasions, not two batches.

[2] = biological target: T2, human GLP-1 receptor (hGLP-1r) (Homo sapiens, UniProt P43220); test: BSA-cAMP assay, cells expressing human GLP-1 receptor; conditions: Batch 1; BSA-cAMP assay; read-out: hGLP1r cAMP activity EC50
T2 construct: expressed in transfected cells
Method: as §1, §2, §3, §4, §5, §6, §7

[3] = biological target: T3, human GIP receptor (hGIPr) (Homo sapiens, UniProt P48546); test: BSA-cAMP assay, cells expressing human GIP receptor; conditions: Batch 1; BSA-cAMP assay; read-out: hGIPr cAMP activity EC50
T3 construct: expressed in transfected cells
T3 sequence (P48546 22-466): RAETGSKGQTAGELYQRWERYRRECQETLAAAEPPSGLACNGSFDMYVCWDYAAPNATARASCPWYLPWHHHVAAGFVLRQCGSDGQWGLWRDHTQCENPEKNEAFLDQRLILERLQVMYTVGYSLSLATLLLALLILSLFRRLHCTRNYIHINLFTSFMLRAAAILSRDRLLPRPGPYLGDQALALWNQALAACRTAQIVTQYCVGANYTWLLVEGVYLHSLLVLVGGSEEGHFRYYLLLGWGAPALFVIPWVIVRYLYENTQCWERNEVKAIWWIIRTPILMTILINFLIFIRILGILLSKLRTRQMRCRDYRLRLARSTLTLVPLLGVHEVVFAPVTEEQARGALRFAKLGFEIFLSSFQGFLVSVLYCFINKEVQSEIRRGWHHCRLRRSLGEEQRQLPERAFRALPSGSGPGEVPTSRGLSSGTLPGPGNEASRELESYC
Method: For human GIPr, two different lines were used, shown as “hGIPr” and “hGIPr (C3)” in Table 11.
as §1, §2, §3, §4, §5, §6, §7

[4] = biological target: T4, rat GLP-1 receptor (rGLP-1r) (Rattus norvegicus, UniProt P32301); test: BSA-cAMP assay, cells expressing rat GLP-1 receptor; conditions: Batch 1; BSA-cAMP assay; read-out: rGLP1r cAMP activity EC50
T4 construct: expressed in transfected cells; host or cells: HEK293s or CHO cells
T4 sequence (P32301 22-463): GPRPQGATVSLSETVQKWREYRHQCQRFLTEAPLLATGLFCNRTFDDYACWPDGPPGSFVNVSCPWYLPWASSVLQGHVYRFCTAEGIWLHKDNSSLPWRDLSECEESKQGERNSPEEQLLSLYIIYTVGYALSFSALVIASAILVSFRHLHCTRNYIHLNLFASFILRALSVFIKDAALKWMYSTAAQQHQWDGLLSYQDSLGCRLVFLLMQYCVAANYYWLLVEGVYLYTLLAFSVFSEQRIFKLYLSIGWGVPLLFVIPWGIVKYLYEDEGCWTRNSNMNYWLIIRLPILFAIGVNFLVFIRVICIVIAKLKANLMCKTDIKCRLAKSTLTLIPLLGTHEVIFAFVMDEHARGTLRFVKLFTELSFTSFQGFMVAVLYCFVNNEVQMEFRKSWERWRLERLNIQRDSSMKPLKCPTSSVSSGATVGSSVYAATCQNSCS
Method: as §1, §2, §3, §4, §5, §6, §7
(§8) In order to be able to carry out in vivo studies in rodents, IP088 was tested for potency against the mouse receptors mGIPr and mGLP-1r as well as the rat receptors rGIPr and rGLP-1r, using cells expressing the respective receptors in the cAMP assay described above.

rat GIP receptor (rGIPr) = biological target: T5, rat GIP receptor (rGIPr) (Rattus norvegicus, UniProt P43219); test: BSA-cAMP assay, cells expressing rat GIP receptor; conditions: Batch 1; BSA-cAMP assay; read-out: rGIPr cAMP activity EC50
T5 construct: expressed in transfected cells; host or cells: HEK293s or CHO cells
T5 sequence (P43219 19-455): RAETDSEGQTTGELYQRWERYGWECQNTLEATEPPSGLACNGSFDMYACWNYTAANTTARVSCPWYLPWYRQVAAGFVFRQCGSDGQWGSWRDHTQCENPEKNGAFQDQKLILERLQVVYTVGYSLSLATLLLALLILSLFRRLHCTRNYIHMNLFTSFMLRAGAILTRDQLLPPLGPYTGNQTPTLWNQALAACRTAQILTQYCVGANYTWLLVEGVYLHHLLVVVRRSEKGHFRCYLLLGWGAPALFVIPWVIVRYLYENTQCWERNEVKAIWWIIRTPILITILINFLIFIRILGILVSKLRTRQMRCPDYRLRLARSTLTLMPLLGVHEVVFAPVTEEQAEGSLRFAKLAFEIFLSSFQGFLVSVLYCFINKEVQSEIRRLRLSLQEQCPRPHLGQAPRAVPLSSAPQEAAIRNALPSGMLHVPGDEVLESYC
Method: as §1, §2, §3, §4, §5, §6, §7, §8

[5] = biological target: T6, mouse GIP receptor (mGIPr) (Mus musculus, UniProt Q0P543); test: BSA-cAMP assay, cells expressing mouse GIP receptor; conditions: Batch 1; BSA-cAMP assay; read-out: mGIPr cAMP activity EC50
T6 construct: expressed in transfected cells; host or cells: HEK293s or CHO cells
T6 sequence (Q0P543 19-460): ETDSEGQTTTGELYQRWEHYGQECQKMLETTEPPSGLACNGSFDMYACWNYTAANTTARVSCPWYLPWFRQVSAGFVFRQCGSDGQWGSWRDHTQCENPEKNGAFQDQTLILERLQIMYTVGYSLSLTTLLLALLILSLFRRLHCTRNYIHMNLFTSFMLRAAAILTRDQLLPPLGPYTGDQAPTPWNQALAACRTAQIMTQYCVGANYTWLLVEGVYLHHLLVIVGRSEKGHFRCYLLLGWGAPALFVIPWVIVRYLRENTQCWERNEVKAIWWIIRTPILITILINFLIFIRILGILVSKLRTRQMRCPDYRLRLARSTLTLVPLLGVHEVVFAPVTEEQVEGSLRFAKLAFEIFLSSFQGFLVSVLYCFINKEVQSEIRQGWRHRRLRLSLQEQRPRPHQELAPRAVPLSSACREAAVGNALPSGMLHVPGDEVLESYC
Method: as §1, §2, §3, §4, §5, §6, §7, §8

[6] = biological target: T7, mouse GLP-1 receptor (mGLP-1r) (Mus musculus, UniProt O35659); test: BSA-cAMP assay, cells expressing mouse GLP-1 receptor; conditions: Batch 1; BSA-cAMP assay; read-out: mGLP1r cAMP activity EC50
T7 construct: expressed in transfected cells; host or cells: HEK293s or CHO cells
T7 sequence (O35659 22-463): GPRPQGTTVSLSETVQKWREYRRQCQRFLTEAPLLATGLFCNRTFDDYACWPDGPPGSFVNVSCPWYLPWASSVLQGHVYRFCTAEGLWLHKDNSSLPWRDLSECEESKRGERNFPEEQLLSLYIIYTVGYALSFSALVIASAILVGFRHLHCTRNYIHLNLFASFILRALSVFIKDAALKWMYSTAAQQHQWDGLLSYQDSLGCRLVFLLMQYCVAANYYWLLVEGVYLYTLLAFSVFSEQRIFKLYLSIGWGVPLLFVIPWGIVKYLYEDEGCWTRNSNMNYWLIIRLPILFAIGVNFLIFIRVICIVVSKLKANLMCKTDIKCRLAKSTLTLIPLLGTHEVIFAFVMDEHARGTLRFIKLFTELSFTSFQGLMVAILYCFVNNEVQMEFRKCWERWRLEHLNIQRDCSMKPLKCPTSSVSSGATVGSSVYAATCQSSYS
Method: as §1, §2, §3, §4, §5, §6, §7, §8

T1 sequence (P47871 26-477): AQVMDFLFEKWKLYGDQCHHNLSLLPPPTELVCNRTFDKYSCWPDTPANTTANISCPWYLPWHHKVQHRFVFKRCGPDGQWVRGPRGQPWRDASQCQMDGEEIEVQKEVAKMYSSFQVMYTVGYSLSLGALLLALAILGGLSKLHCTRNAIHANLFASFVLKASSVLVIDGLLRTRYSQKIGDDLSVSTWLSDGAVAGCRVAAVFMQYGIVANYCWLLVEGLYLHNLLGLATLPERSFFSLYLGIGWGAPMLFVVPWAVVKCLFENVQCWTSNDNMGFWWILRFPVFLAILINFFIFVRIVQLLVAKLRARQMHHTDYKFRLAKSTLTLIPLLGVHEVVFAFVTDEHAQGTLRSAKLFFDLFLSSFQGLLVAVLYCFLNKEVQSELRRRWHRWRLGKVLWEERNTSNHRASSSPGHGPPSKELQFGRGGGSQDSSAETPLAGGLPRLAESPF
T2 sequence (P43220 24-463): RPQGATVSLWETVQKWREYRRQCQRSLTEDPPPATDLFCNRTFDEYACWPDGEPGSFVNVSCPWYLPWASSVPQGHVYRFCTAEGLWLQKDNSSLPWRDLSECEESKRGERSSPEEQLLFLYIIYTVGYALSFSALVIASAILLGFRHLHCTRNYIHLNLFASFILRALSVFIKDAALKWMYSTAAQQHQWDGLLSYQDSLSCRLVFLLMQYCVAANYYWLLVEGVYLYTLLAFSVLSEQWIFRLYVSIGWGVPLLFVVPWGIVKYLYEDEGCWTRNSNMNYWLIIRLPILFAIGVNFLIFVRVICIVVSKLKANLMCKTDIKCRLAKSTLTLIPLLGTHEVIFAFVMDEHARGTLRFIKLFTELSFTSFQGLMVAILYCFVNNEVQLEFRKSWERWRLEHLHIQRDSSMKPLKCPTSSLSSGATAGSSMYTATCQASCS

Substance	EC50 [1] [nM]	EC50 [2] [nM]	EC50 [3] [nM]	EC50 [4] [nM]	EC50 (rat GIP receptor (rGIPr)) [nM]	EC50 [5] [nM]	EC50 [6] [nM]
IP318: Fc fusion, IgG1-TM(ΔK), SEQ ID NO:432; agonist peptide YSEGTFISDYSIAMDEEAVRDFVEWLKAGG (YSEGTFISDYSIAMDEEAVRDFVEWLKAGGGGGGGSGGGGSGGGGSGGGGSATHTCPPC)	≥ 4500	≥ 4500	0.05	> 4470	14	35	> 4470
IP342 (YSEGTFTSDYSAAAEAAAAAAFAAWLAAAAGGGGGSGGGGSGGGGSGGGGSACPPC)	> 3560	75	4.7	23	5.1	43	670
IP305: Fc fusion, IgG1-TM(ΔK), SEQ ID NO:430; agonist peptide YSEGTFISDYSIALAAAAVRDFVNWLLAGG (YSEGTFISDYSIALAAAAVRDFVNWLLAGGGGGGGSGGGGSGGGGSGGGGSATHTCPPC)	≥ 1100	230	0.26	47	1.7	3.2	> 1130
IP314: Fc fusion, IgG1-TM(ΔK), SEQ ID NO:431; agonist peptide YSEGTFISDYSKLLAAAAVRDFVNWLLAGG (YSEGTFISDYSKLLAAAAVRDFVNWLLAGGGGGGGSGGGGSGGGGSGGGGSATHTCPPC)	740	> 906	0.23	450	0.88	15	> 906
IP335 (YSEGTFISDYSIAMDKIHQQDFVNWLLAQKGGGGGSGGGGSGGGGSGGGGSA)	280	> 5480	0.0058	> 2740	0.0067	0.02	> 2740
